Reference: a protein production outcome set (Wang et al. 2014)

Experiment: label from the status in PepcDB records

Sequence | protein production
MADMESLDTAEMQEAAEKQAALFPNGGKSAEPTAAKHTATGLADGNKKPPVSNSFLDKFFQISKRGSTLAREFRGGLVTFFTMAYIVILNPLILGGFSAENAPTDVAGGWLSAAQVGAVTGLTAGVMTIIFGLVANLPFGLAAGLGINSFLAVAVIQEVTWPEAMGLVVINGILIVLFGATGARTAIFKAVPKELKAAITVGIGLFIAFIGFVDSGFVRATTGGPPVQLGDNGSITSIPTLVFIVGLLTMGILVARKIQGGLLIGIVATTVLAAVVEAVFHIGPGSADNPGGWHLNVPILSSQLVSVPDLSLVGQFDLFGSFARIGGLAATMLVFTLVFTNFFDAMGTMTGLAKSAGVAHKDGTFPKLKSAFIVEGMGAVVGGATSGSSNTVYIDSAAGIGEGARTGLASVVTGLLFLGSMFFTPLTSVVPLEVAAAALVVVGAMMMAQIREIKFTKFSIALPAFLTIVTMPLTYSIANGIGVGFISFAVISAASGKAKKVHPLMWVVTAGFIIYFARGPINALMGV | failed
MESTKQEEQGIYAATPPATGLLERLFKLRQHGTTVRTELAAGLTTFITMAYIIFVNPNIMADAGIDHGAAFVATCLAAALGCFLMGLYANWPVGLAPGMGLNAFFTYTVVGTMGYSWQIALGAVFISGVMFMLLTFSRVREWLLNSIPRSLRFAMGAGVGLFLGLIGLKTAGIVVASPATLIKLGHLTSPGPLLAALCFLMIAVLEYRRVFGGILISILSVTLVGWALGLVQYGGVFSAPPSLAPTFLAMDIAGAFNVTMISVILAFLFVHMFDTAGTLMGVAQRAHLVKEDGRIENLSKAMKADSASSVFGGMLGVPPVTSYVESAAGVAAGGRTGLTAVVVGVLFVAAMFFAPLAGMIPAFATAGALIYVAMLMMGGMAHIDWDEHTETIPAIVTVIMMPLTFSVADGIALGFITYVAMKVLTGKHREVSASLYALFVIFVAKFIFL | failed
MNQNQNKKTKIVALSMMNSQTSGNPSRGTTKFESYTFDYWQYIDTLVYWGGSSGEGIIVTPSADVIDEAHSNGVPVLGTIFLPPKEYGGKVDWVKTMLKKDEQGQYPFASQMVKVAKTYGFEGWFINEETQGLNADDAANMKALIQQVKKEDSSLQIMWYDAMTKDGKVDWQNQLNDQNATFVQDKAADAMFLNFWWTQNNLADQKLLEKSNLYAKNHNIDPYNIYAGIDVQAKDVQTPVKWNLLEKGNQATQTSIGLYAASATYTNASNWDDFQNRESAFWVNQKADPRQVDHSVNESWTGLSKYVLEKSAISGNEFNTNFNLGNGYNYFKAGQKISEMDWNDRSLAGILPSYRWIIDNEGKNKISPSFDFANAYNGGNSLKFMAEHLDAGKSSNITLFASDLKIAMGAKFSVSMRSDQALKVSAILELANGQKVSIAGDKSLTENWSKLEHHHHHH | not failed
MMDTVKNRRTIRKYQQKDITPDLLNDLLETSFRASTMGGMQLYSVVVTRDAEKKEILSPAHFNQPMVKEAPVVLTFCADFRRFCKYCQERNAVPGYGNLMSFLNAAMDTLLVAQTFCTLAEEAGLGICYLGTTTYNPQMIIDALHLPELVFPITTVTVGYPAESPKQVDRLPIEGIIHEESYHDYTAEDINRLYAYKESLPENKLFIEENQKETLPQVFTDVRYTKKDNEFMSENLLKVLRRQGFMD | not failed
MLSTMQPTLATNYTTIPCYQLCYQHYATNLAPIIRSTGSMILNYAIIRLSLQQNLCYRKTCVRDTAQYDPPCNKIYTTGLCCSRTYKTLQAFFLDMSETPQKLREEAVKYFNETLDLMQKGENAEALESLRKAESSAQKAEDGPILFHILKVRGQLLQSLDMLEEALETYAFSLIMSEKLLSEDPENKLYTDTLHLNLNNLGNLGNAFQRMGNFPSSKQAYEIGIEICQNLLNSYPENEFYRMYAGNTLNNLGELLFTMGEPEEAKEKYEEALKTYSLLLKNSPEKPEYLSDTAMTLNNLGNLYSEKGQEAEAKENFEKALEILKKRSEKEPGNEKLREEIRITQEKLEAI | failed
MSTPLTLIATITAAPGHAEALERELRALVAPSRAEAGCLQYDLHQDRHDSHLFYMIEQWRDDAALERHQNTEHFLRFSRGNEALLQNVKIDQLYRLA | not failed
MVRKSIDRSTAAEITRGIGNVFADLGMPDAEERQTKLRLAYALNAVIDRARLSQAAAAARLGINQPKVSALRNYKLEGFSVERLMTLLNALDQDVEIVIRKKPRSRAAARISVVAA | not failed
MAKKNKPTECPAGEKWAVPYADFLSLLLALFIALYAISAVNKSKVEALKTEFIKIFNYAPKPEAMQPVVVIPPDSGKEEEQMASESSKPASQNTETKATIARKGEGSVLEQIDQGSILKLPSNLLFENATSDAINQDMMLYIERIAKIIQKLPKRVHINVRGFTDDTPLVKTRFKSHYELAANRAYRVMKVLIQYGVNPNQLSFSSYGSTNPIAPNDSLENRMKNNRVEIFFSTDANDLSKIHSILDNEFNPHKQQE | failed
MASKPVDVMVVNFNTAGLLQPMFDALRRADSERLASYLVVDNASRDDSVQRMAQVCPEALLLSNKQNVGFGRANNQLLAHLKGKYALLLNTDAFVAADSLQKTLDYMDAHPECGVLGVRLEGRDGDLQPSCRYFPTPLNVFVGRTGLGRFFPGVKMVDDMNWDHASVRECDWLPGCFYLVRREVLDKVGLFDPRYFLYYEEVDHCKRVKEAGWKVVFYPHTTVVHIGGESSKSVAELEAASRQISSYQIESELLYFRKHHGVAGLALHMLLVTLGDLVLALKALLKRRGWGAIQACWRHCRATWSLLFKTRYASQPTR | failed
MTFRYRGPSPKGDQPKAIAGLVEALRDGERFVTLLGATGTGKTVTMAKVIEALGRPALVLAPNKILAAQLAAEFRELFPENAVEYFISYYDYYQPEAYVPGKDLYIEKDASINPEIERLRHSTTRSLLTRRDVIVVASVSAIYGLGDPREYRARNLVVERGKPYPREVLLERLLELGYQRNDIDLSPGRFRAKGEVLEIFPAYETEPIRVELFGDEVERISQVHPVTGERLRELPGFVLFPATHYLSPEGLEEILKEIEKELWERVRYFEERGEVLYAQRLKERTLYDLEMLRVMGTCPGVENYARYFTGKAPGEPPYTLLDYFPEDFLVFLDESHVTVPQLQGMYRGDYARKKTLVDYGFRLPSALDNRPLRFEEFLERVSQVVFVSATPGPFELAHSGRVVEQIIRPTGLLDPLVRVKPTENQILDLMEGIRERAARGERTLVTVLTVRMAEELTSFLVEHGIRARYLHHELDAFERQALIRDLRLGHYDCLVGINLLREGLDIPEVSLVAILDADKEGFLRSERSLIQTIGRAARNARGEVWLYADRVSEAMQRAIEETNRRRALQEAYNLEHGITPETVRKEVRAVIRPEGYEEAPLEADLSGEDLRERIAELELAMWQAAEALDFERAARLRDEIRALEARLQGVRAPEPVPGGRKRKRR | not failed
QKRLRRKLHEYQKNIPPQVRAARLADDINAKLGRPLQYQNRGRIEYLITLNGPEPHEYRNSPIDYQHYIDKQLKPVADAILPFIGTDFETLSAPQMGLF | failed
MANVFLISSRNRRSMRTTTESKPKNLTVKRSDSSSDYNYSCKKHPKHRQSPGICSLCLNESLSKLSSEFYDYSSSMSSSSLAKTMSSCSSASSESESDFSSTAISSYYSSVSSCLSPLQHRYSEIVVNKKKKKHVKKQSFLSRLFLKQRIQTKAVIGWHMTLQLAIQLMYGKRKKTCHASFIQVWY | failed
MPLRSAGSGKASRDAVHHPLFARSYARISVTAETRLGMGGVRDRLLAGLSGRVIEIGAGNGLNFAHYPGAVSEVVAIEPERLLRQLAVEAALRCDVPVDVVPGAAEALPVKSEAFDAAVVSLVLCSVRDVSRALGELRRVLRPGGTLRFFEHGAGGGRAMAATQRALDRTVWPRLNGGCHLTRDAVSAVREAGFELGPYRRMLLPEKGPRLPTSYCVLGTAWRPGSAD | failed
MSNVRVLATDLAFPEGPVVMPDGSVVLVEIRAQQLTRVWPDGRKEVVAKVPGGPNGAALGPDGKMYICNNGGFGWFPSRGTMMPGAPAPHEYIGGSIQRVDLQSGEVETLFDKCGEHPLKGPNDLVFDKHGGLWFTDLGKRRARDMDVGAAYYIKPGMTEITEQVFGTLPLNGIGLSPDEATMYAAETPTGRLWAFDLSGPGEVKPRDVIYRGEKGKPICGLGGYQMFDSLAVEASGNVCVATLVSGCISVIAPDGTLVEQVPTGDRVTTNIAFGGPDLKTAYITLSGKGELIAMDWSRPGLPLNFLNK | failed
MPAETNEYLSRFVEYMTGERKSRYTIKEYRFLVDQFLSFMNKKPDEITPMDIERYKNFLAVKKR | failed
MSLAAARGGVGAGPDVRPVHGVHARMAEKMTLSHKEIPTAKASVEVICAELLRLRDRFVSAAPEITPFALTLRLLVIALKHNVILNSTWVDSGEGPQVHVHRGVHLGFGAATERGLLVPVVTDAQDKNTRELASRVAELITGAREGTLTPAELRGSTFTVSNFGALGVDDGVPVINHPEAAILGLGAIKPRPVVVGGEVVARPTMTLTCVFDHRVVDGAQVAQFMCELRDLIESPETALLDLEGHHHHHH | not failed
MQLALVLSELGEYQVSNQWLLKIIHDLDETMYDCLYFLANNYACLGLFREATQYAEQYLTCESDGEFADDAADLLELLKLDRHDVSEEQEQLITMQERARHLLEQERFAEAIEALEAIVSRYPEFWSAHNNLALAYFYNGDVERAKQKLLEVLKRDPGNLHALCNALVFAYYLHDQEEVAALCETLASVYPFFREHQYKLGATFALVGRFDSAFRWLYRLYKNGFDGDGPFYYWLAYSAYHIGHESLARQVWETLTTLHPEKLEHHHHHH | failed
METLSVGHKIKTLRQSLGLSQRDLAEGICTQALISHIEKNKTTPTVDVFFNIAKKLGAPADYFLETHDNSLDYILEVQYQIRKQVQEHNYEEALNIIKTERKNPIFNNSKYLQFLLWHEAICEYSLNKRYNEAVEAIEEALKLTHKEGNSYSEREIEILISLANFHDSEKKYDLSTKIYQDINDSLKALSYLSDRKIQLRFLFNYSLNRNNVKRYKEAIDLCNKGIILCKQHGFLYSFGEFHYQKGQNLIDLGRKKEALKFLEKAKMIFDIQDNELFANIADKEIKKLQKSLEMTVS | failed
MKLSINDLNVFVNTPKDIAKLCEDLSRLGLEVESCIPCIAPKNVVVGKILEKAPHKNAEKLSVCQVDVGKEVLQIVCGAKNVAPNQFVPVALNGALIGSTTIAKTELRGVESHGMICSSIELGFPKINDGILELDESVGELVLGKELNEYAPFNTHVLEISLTPNRGDCLSVLGIAREISAFYHTPLKPIKALNFTPKSGLITLSAGENIESHLAYYLICNHSLKTPLNIKLSLAHNNALSENDLNNFIEFSTHFSGVIMNAYSLNTTPMDLSVKNDENNLESVYINHQKRSTIAIKHQVQKDLSECLLLEASYTDPISLSLKLHALKDKTLQKDNALIYRSARGSNPNLSDGLNFLSAHLKATILESKQTEHSLKDRTLTFQLEDITEILGLAVEKEKIQGILKNLGFKVSVKEPNSKPQILEVIAPNFRHDIKTIQDIAEEILRFVGIDNLVSKPLHCVSSKNSNPNYDTHRFFENLKHKALACGFKEVIHYVFYSKEKQQKLGFEVLEDPLELQNPITTELNTLRTSLVCGLLDASLRNKNLGFKSIALYEKGSVYNSKREEIQKLGFLISGLQKKESYPDTKGKAWDFYSFAECVSKVIGDFSLEKLTTQTPINHPYQSAKIIQNHEIIGVIAKIHPKVIQELDLFESYYAEIDAFKLKRPAMLLKPFSIYPSSVRDLTLIIDENTAFSGIKKALKDAQIPNLSEILPLDIFKESNNSIALSVRCVIHSLEKTLNDEEVNSAVQKALEILEKEFNARLKG | failed
MASDREEFNLCGPTHLTTVDWGNEDHQRCVAACLVQGIYIVEQDRQLKREGTEALASPWWESFNFKLIRHLKDDADFSIFGGIFEYKSLQPDVVDSGVPRYVIAFRGTLTKADSITRDIELDIHIIRNGLHRTSRFEIAMQAVRSMADSVGASSFWLTGHSLGAAMALLAGKTMGKSGVYIKSLLFNPPYVSPPIERIANERVRHGIRFAGSLITAGLALSRTLKQTQQPQQQQLQLQNLTEDPLEALSSWLPNIHVNPGDHLCSEYIGFFEHRGNMEQIGYGAGIVERMAMQHSLGGLLMDAMGVSNAVEVEEPVHVIPSANLIVNKTISEDYKDAHGIHQWWRDDQDLVSHIYMYK | failed
